Assay results as given in article PMC9352680, “A comprehensive thermodynamic model for RNA binding by the Saccharomyces cerevisiae Pumilio protein PUF4”.

T1: PUF4 RNA-binding domain (Saccharomyces cerevisiae, UniProt P25339 537-888)
T1 sequence: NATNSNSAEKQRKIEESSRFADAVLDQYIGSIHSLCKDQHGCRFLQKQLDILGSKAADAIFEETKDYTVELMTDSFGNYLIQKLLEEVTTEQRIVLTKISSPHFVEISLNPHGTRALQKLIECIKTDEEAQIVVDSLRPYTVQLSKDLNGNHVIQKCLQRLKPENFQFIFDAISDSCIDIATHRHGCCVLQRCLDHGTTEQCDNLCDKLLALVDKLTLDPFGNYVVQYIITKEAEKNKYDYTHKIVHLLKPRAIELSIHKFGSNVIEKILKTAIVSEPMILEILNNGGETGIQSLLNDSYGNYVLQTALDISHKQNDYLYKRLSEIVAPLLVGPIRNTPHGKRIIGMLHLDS

B1: Ic_S2_P4E.1_K4.1_C4.1_H4.1_A4.1_[T7G]_F4.1_[T8C]_T4.1 (ssRNA)
RNA: UUUGAUUAAUAUGAUAUCGUUCUUUCUUGUAUAGCAUUCUUUCUCGAUAUCAUAUUAAUCUUU
B2: Ib_S2_P4E.1_K4.1_C4.1_H4.1_[G2A]_[A4C]_A4.1_F4.1_T4.1 (ssRNA)
RNA: UUUGAUUAAUAUGAUAUCGUUCUUUCUUAUCUAUUAUUCUUUCUCGAUAUCAUAUUAAUCUUU
B3: Ib_S2_P4E.1_K4.1_C4.1_H4.1_[G2T]_[T3A]_A4.1_F4.1_T4.1 (ssRNA)
RNA: UUUGAUUAAUAUGAUAUCGUUCUUUCUUUAAUAUUAUUCUUUCUCGAUAUCAUAUUAAUCUUU
B4: Ib_S2_P4E.1_K4.1_C4.1_H4.1_[T1G]_A4.1_[T5C]_F4.1_T4.1 (ssRNA)
RNA: UUUGAUUAAUAUGAUAUCGUUCUUUCUGGUACAUUAUUCUUUCUCGAUAUCAUAUUAAUCUUU
B5: Ib_S2_P4E.1_K4.1_C4.1_H4.1_[T3C]_[A4T]_A4.1_F4.1_T4.1 (ssRNA)
RNA: UUUGAUUAAUAUGAUAUCGUUCUUUCUUGCUUAUUAUUCUUUCUCGAUAUCAUAUUAAUCUUU
B6: Ib_S2_P4E.1_K4.1_C4.1_H4.1_A4.1_[T5A]_F4.1_[A9T]_T4.1 (ssRNA)
RNA: UUUGAUUAAUAUGAUAUCGUUCUUUCUUGUAAAUUUUUCUUUCUCGAUAUCAUAUUAAUCUUU
B7: Ia_S2_P4E.1_K4.1_C4.1_H4.1_[T1A]_A4.1_F4.1_T4.1 (ssRNA)
RNA: UUUGAUUAAUAUGAUAUCGUUCUUUCUAGUAUAUUAUUCUUUCUCGAUAUCAUAUUAAUCUUU
B8: Ic_S2_P4E.1_K4.1_C4.1_H4.1_A4.1_[T7C]_F4.1_[T8C]_T4.1 (ssRNA)
RNA: UUUGAUUAAUAUGAUAUCGUUCUUUCUUGUAUACCAUUCUUUCUCGAUAUCAUAUUAAUCUUU
B9: Ia_S2_P4E.1_K4.1_C4.1_H4.1_[G2C]_A4.1_F4.1_T4.1 (ssRNA)
RNA: UUUGAUUAAUAUGAUAUCGUUCUUUCUUCUAUAUUAUUCUUUCUCGAUAUCAUAUUAAUCUUU
B10: Ib_S2_P4E.1_K4.1_C4.1_H4.1_A4.1_[T7A]_F4.1_[T8C]_T4.1 (ssRNA)
RNA: UUUGAUUAAUAUGAUAUCGUUCUUUCUUGUAUAACAUUCUUUCUCGAUAUCAUAUUAAUCUUU
B11: Ib_S2_P4E.1_K4.1_C4.1_H4.1_A4.1_[A6C]_F4.1_[A9G]_T4.1 (ssRNA)
RNA: UUUGAUUAAUAUGAUAUCGUUCUUUCUUGUAUCUUGUUCUUUCUCGAUAUCAUAUUAAUCUUU
B12: Ib_S2_P4E.1_K4.1_C4.1_H4.1_A4.1_[A6C]_F4.1_[A9T]_T4.1 (ssRNA)
RNA: UUUGAUUAAUAUGAUAUCGUUCUUUCUUGUAUCUUUUUCUUUCUCGAUAUCAUAUUAAUCUUU
B13: Ib_S2_P4E.1_K4.1_C4.1_H4.1_A4.1_[A6T]_F4.1_[A9T]_T4.1 (ssRNA)
RNA: UUUGAUUAAUAUGAUAUCGUUCUUUCUUGUAUUUUUUUCUUUCUCGAUAUCAUAUUAAUCUUU
B14: Ib_S2_P4E.1_K4.1_C4.1_H4.1_[T1G]_[A4C]_A4.1_F4.1_T4.1 (ssRNA)
RNA: UUUGAUUAAUAUGAUAUCGUUCUUUCUGGUCUAUUAUUCUUUCUCGAUAUCAUAUUAAUCUUU
B15: Ib_S2_P4E.1_K4.1_C4.1_H4.1_[T1G]_[G2T]_A4.1_F4.1_T4.1 (ssRNA)
RNA: UUUGAUUAAUAUGAUAUCGUUCUUUCUGUUAUAUUAUUCUUUCUCGAUAUCAUAUUAAUCUUU
B16: Ib_S2_P4E.1_K4.1_C4.1_H4.1_[T1A]_[G2C]_A4.1_F4.1_T4.1 (ssRNA)
RNA: UUUGAUUAAUAUGAUAUCGUUCUUUCUACUAUAUUAUUCUUUCUCGAUAUCAUAUUAAUCUUU
B17: Ic_S2_P4E.1_K4.1_C4.1_H4.1_A4.1_[T7A]_F4.1_[T8A]_T4.1 (ssRNA)
RNA: UUUGAUUAAUAUGAUAUCGUUCUUUCUUGUAUAAAAUUCUUUCUCGAUAUCAUAUUAAUCUUU
B18: Ic_S2_P4E.1_K4.1_C4.1_H4.1_A4.1_[T5C]_F4.1_[A9C]_T4.1 (ssRNA)
RNA: UUUGAUUAAUAUGAUAUCGUUCUUUCUUGUACAUUCUUCUUUCUCGAUAUCAUAUUAAUCUUU
B19: Ia_S2_P4E.1_K4.1_C4.1_H4.1_[G2T]_A4.1_F4.1_T4.1 (ssRNA)
RNA: UUUGAUUAAUAUGAUAUCGUUCUUUCUUUUAUAUUAUUCUUUCUCGAUAUCAUAUUAAUCUUU
B20: Ib_S2_P4E.1_K4.1_C4.1_H4.1_[G2A]_[T3C]_A4.1_F4.1_T4.1 (ssRNA)
RNA: UUUGAUUAAUAUGAUAUCGUUCUUUCUUACAUAUUAUUCUUUCUCGAUAUCAUAUUAAUCUUU
B21: Ic_S2_P4E.1_K4.1_C4.1_H4.1_A4.1_[T7C]_F4.1_[T8A]_T4.1 (ssRNA)
RNA: UUUGAUUAAUAUGAUAUCGUUCUUUCUUGUAUACAAUUCUUUCUCGAUAUCAUAUUAAUCUUU
B22: Ib_S2_P4E.1_K4.1_C4.1_H4.1_A4.1_[A6G]_F4.1_[A9T]_T4.1 (ssRNA)
RNA: UUUGAUUAAUAUGAUAUCGUUCUUUCUUGUAUGUUUUUCUUUCUCGAUAUCAUAUUAAUCUUU

target: T1, PUF4 RNA-binding domain; experiment: Mg; RNA-MaP; 20 mM Na-HEPES pH 7.4, 30 mM KOAc, 0.75 mM MgCl2, 0.1% Tween-20, 5% glycerol, 0.1 mg/mL BSA, 2 mM DTT; 25 C; 0.0125-409.6 nM protein; conditions: tags: N-His6-TEV cleaved; C-SNAP kept, Cy3B-labelled; label: tethered on chip by stalled RNA polymerase

For B1, which Kd is on record?
The Kd was 42 nM.

Which Kd does the source give for B2 here?
The Kd was 1120 nM.

B3 was tested. Which Kd did it give?
The Kd was 2120 nM.

How did the Kd turn out when B4 was run?
The Kd was 21.1 nM.

With B5 as the binder, how does the Kd read?
Its Kd is 667 nM.

With B6 as the binder, how does the Kd read?
The Kd was 11 nM.

With B7 as the binder, how does the Kd read?
Its Kd is 103 nM.

Which Kd does the source give for B8 here?
Its Kd is 12 nM.

For B9, which Kd is on record?
Its Kd is 151 nM.

How did the Kd turn out when B10 was run?
Its Kd is 18.8 nM.

With B11 as the binder, how does the Kd read?
Its Kd is 9.54 nM.

B12 was tested. Which Kd did it give?
The Kd was 8.41 nM.

B13 was tested. Which Kd did it give?
The Kd was 9.83 nM.

For B14, which Kd is on record?
The Kd was 1520 nM.

B15 was tested. Which Kd did it give?
The Kd was 7.76 nM.

With B16 as the binder, how does the Kd read?
The Kd was 174 nM.

Which Kd does the source give for B17 here?
Its Kd is 16.9 nM.

With B18 as the binder, how does the Kd read?
The Kd was 2.72 nM.

For B19, which Kd is on record?
Its Kd is 137 nM.

For B20, which Kd is on record?
Its Kd is 1430 nM.

Which Kd does the source give for B21 here?
The Kd was 18 nM.

Which Kd does the source give for B22 here?
The Kd was 18.3 nM.
